Assay [1] has as its target RaxX21-sY (tyrosine sulfated synthetic 21-residue derivative of RaxX, residues 35-55) (Xanthomonas oryzae pv. oryzae). Nature of the assay: MST.
Assay [2] deals with RaxX21-nY (non-sulfated synthetic 21-residue derivative of RaxX, residues 35-55) (Xanthomonas oryzae pv. oryzae). Nature of the assay: MST.

Broadly, the Kd is a measure of binding affinity in units of concentration.

B1: XA21 extracellular domain (XA21^ECD; XA21 residues 23-649) (domain or fragment)
chain: SDDDGDAAGDELALLSFKSSLLYQGGQSLASWNTSGHGQHCTWVGVVCGRRRRRHPHRVVKLLLRSSNLSGIISPSLGNLSFLRELDLGDNYLSGEIPPELSRLSRLQLLELSDNSIQGSIPAAIGACTKLTSLDLSHNQLRGMIPREIGASLKHLSNLYLYKNGLSGEIPSALGNLTSLQEFDLSFNRLSGAIPSSLGQLSSLLTMNLGQNNLSGMIPNSIWNLSSLRAFSVRENKLGGMIPTNAFKTLHLLEVIDMGTNRFHGKIPASVANASHLTVIQIYGNLFSGIITSGFGRLRNLTELYLWRNLFQTREQDDWGFISDLTNCSKLQTLNLGENNLGGVLPNSFSNLSTSLSFLALELNKITGSIPKDIGNLIGLQHLYLCNNNFRGSLPSSLGRLKNLGILLAYENNLSGSIPLAIGNLTELNILLLGTNKFSGWIPYTLSNLTNLLSLGLSTNNLSGPIPSELFNIQTLSIMINVSKNNLEGSIPQEIGHLKNLVEFHAESNRLSGKIPNTLGDCQLLRYLYLQNNLLSGSIPSALGQLKGLETLDLSSNNLSGQIPTSLADITMLHSLNLSFNSFVGEVPTIGAFAAASGISIQGNAKLCGGIPDLHLPRCCPLLENRK
B1: the equilibrium dissociation constant (Kd) in assay [1] stood at 20 nM; in assay [2], 400 nM.

For the origin of these results see publication doi:10.1101/442517 (bioRxiv, 2018).
